Test results: patent publication EP2265113B1

Experiments:
[1] = target: H-ferritin receptors (binding sites) on bovine retinal endothelial cells (BREC cell homogenate); assay: homologous competition: unlabelled H-ferritin against 0.4 nM 125I-H-ferritin on BREC homogenate, one-site competition fit
[2] = target: H-ferritin receptors (binding sites) on rat brain microvasculature (isolated microvessels); assay: saturation binding of 125I-H-ferritin to rat brain microvessels, one-site global fit
[3] = target: H-ferritin receptors (binding sites) on bovine retinal endothelial cells (BREC cell homogenate); assay: saturation binding of 125I-H-ferritin to BREC homogenate, one-site global fit

Kd [1]: 2 nM | Bmax (fmol/mg protein) [2]: 573 | Kd [2]: 7.9 nM | Bmax (fmol/mg protein) [3]: 466 | Kd [3]: 2.7 nM
Substance: recombinant human H-ferritin (His tagged, expressed in E. coli, nickel column purified) (from UniProt P02794 1-183) (ligand)
